Article PMC7904446 (Cell Host & Microbe, 2021)

Assays:
[1] = target: T1, SARS-CoV-2 spike trimer protein (SARS-CoV-2, Wuhan-Hu-1 reference, UniProt P0DTC2); assay: cell-based or functional assay
[2] = target: T1, SARS-CoV-2 spike trimer protein; assay: SPR

| Binder | neutralisation of live SARS-CoV-2, IC50; blocks S binding to ACE2 [1] | pseudovirus neutralisation in 293T-ACE2 cells, IC90; blocks S binding to ACE2 [1] | Kd [2] |
| --- | --- | --- | --- |
| ZDY20 human monoclonal antibody, IgG1 (antibody, V domains shown) VH: EVQLVETGGGLIQPGGSLRLSCAASGITVSSNYMSWVRQAPGKGLEWVSVIYSGGSTYYADSVKGRFTISRDNSKNTLYLQMNSLRAEDTAVYYCAREGLGDGYNAIAGLGFDLWGRGTLVTVSS VL: DIVMTQSPSSLSASVGDSVTITCQASQDINNYLNWYQQKPGRAPELLINDASNLEAGVPSRFSGSGSGTDFTLTISSLQTEDFATYYCQQYGSLPYTFGQGTKLDIR | 0.35 µg/mL | 1.24 µg/mL | 8.8 nM |
| ZDY28 human monoclonal antibody, IgG1 (antibody, V domains shown) VH: EVQLVQSGGGVVQPGRSLRLSCAASGFTFSSYGMHWVRQAPGKGLEWVAVISYDGSNKYYADSVKGRFTISRDNSKNTLYLQMNSLRAEDTAVYYCASRSTVVPAAIFAFDIWGQGTMVTVSS VL: not shown | – | 7.47 µg/mL | 10.2 nM |
| ZDY95 human monoclonal antibody, IgG1 (antibody, V domains shown) VH: EVQLVQSGGGVVQPGRSLRLSCAASGFTFSSYGMHWVRQAPGKGLEWVAVISYDGSNKYYADSVKGRFTISRDNSKNTLYLQMNSLRAEDTAVYYCASRSTVVPAAIFAFDIWGQGTMVTVSS VL: not shown | – | 13.3 µg/mL | 15 nM |
| ZDY49 human monoclonal antibody, IgG1 (antibody, V domains shown) VH: EVQLVESGGGVVQPGRSLRLSCAASGFTFSSYGMHWVRQAPGKGLEWVAVISYDGSNKYYADSVKGRFTISRDNSKNTLYLQMNSLRAEDTAVYYCASRSTVVPAAIFAFDIWGQGTMVTVSS VL: not shown | – | 17.1 µg/mL | 24.4 nM |
